We go through 17 molecules from publication PMC7383237, “Diversification of DNA-Binding Specificity by Permissive and Specificity-Switching Mutations in the ParB/Noc Protein Family”.

B1: parS BLI duplex (dsDNA)
DNA 1: GGGATGTTTCACGTGAAACA
DNA 2: TGTTTCACGTGAAACATCCC
B2: site14 (dsDNA)
DNA 1: GGGATATTTCGCGCGAAATA
DNA 2: TATTTCGCGCGAAATATCCC
B3: site5 (dsDNA)
DNA 1: GGGATCTTTCTCGAGAAAGA
DNA 2: TCTTTCTCGAGAAAGATCCC
B4: site11 (dsDNA)
DNA 1: GGGATTTTTCCCGGGAAAAA
DNA 2: TTTTTCCCGGGAAAAATCCC
B5: site7 (dsDNA)
DNA 1: GGGATCTTTCCCGGGAAAGA
DNA 2: TCTTTCCCGGGAAAGATCCC
B6: site3 (dsDNA)
DNA 1: GGGATGTTTCCCGGGAAACA
DNA 2: TGTTTCCCGGGAAACATCCC
B7: site8 (dsDNA)
DNA 1: GGGATTTTTCACGTGAAAAA
DNA 2: TTTTTCACGTGAAAAATCCC
B8: NBS BLI duplex (dsDNA)
DNA 1: GGGATATTTCCCGGGAAATA
DNA 2: TATTTCCCGGGAAATATCCC
B9: site9 (dsDNA)
DNA 1: GGGATTTTTCTCGAGAAAAA
DNA 2: TTTTTCTCGAGAAAAATCCC
B10: site13 (dsDNA)
DNA 1: GGGATATTTCTCGAGAAATA
DNA 2: TATTTCTCGAGAAATATCCC
B11: site1 (dsDNA)
DNA 1: GGGATGTTTCTCGAGAAACA
DNA 2: TGTTTCTCGAGAAACATCCC
B12: site10 (dsDNA)
DNA 1: GGGATTTTTCGCGCGAAAAA
DNA 2: TTTTTCGCGCGAAAAATCCC
B13: site6 (dsDNA)
DNA 1: GGGATCTTTCGCGCGAAAGA
DNA 2: TCTTTCGCGCGAAAGATCCC
B14: site2 (dsDNA)
DNA 1: GGGATGTTTCGCGCGAAACA
DNA 2: TGTTTCGCGCGAAACATCCC
B15: site4 (dsDNA)
DNA 1: GGGATCTTTCACGTGAAAGA
DNA 2: TCTTTCACGTGAAAGATCCC
B16: site12 (dsDNA)
DNA 1: GGGATATTTCACGTGAAATA
DNA 2: TATTTCACGTGAAATATCCC
B17: parS 20-bp crystal duplex (dsDNA)
DNA 1: GATGTTTCACGTGAAACATC
DNA 2: GATGTTTCACGTGAAACATC

Changes are numbered by the printed parent chain.

The target in the first data set is T1, ParB WT (RTAG) (Caulobacter crescentus, UniProt B8GW30 1-304).
T1 sequence: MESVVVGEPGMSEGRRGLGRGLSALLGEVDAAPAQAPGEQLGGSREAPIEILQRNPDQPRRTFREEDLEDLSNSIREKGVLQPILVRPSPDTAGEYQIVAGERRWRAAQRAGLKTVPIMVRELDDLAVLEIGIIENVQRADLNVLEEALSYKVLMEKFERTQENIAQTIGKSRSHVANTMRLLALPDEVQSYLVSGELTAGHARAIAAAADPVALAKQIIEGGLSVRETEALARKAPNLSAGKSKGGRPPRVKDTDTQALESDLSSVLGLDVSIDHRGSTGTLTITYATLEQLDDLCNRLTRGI
The data set can be described thus: BLI; BLI: 100 mM Tris-HCl pH 7.4, 150 mM NaCl, 1 mM EDTA, 0.005% Tween 20; temperature not stated; biotinylated DNA on streptavidin sensor, protein typically 0-1000. The following applies: protein: recombinant; tags: C-terminal His6; chain copies: 2; label: 5' biotin on strand 1; blunt.
With B1, the Kd (usually the constant that tells how readily two partners part at equilibrium) stood at 11 ± 7 nM.

A further data set deals with T2, ParB PtoN7 (QTAR) (Caulobacter crescentus, UniProt B8GW30 1-304, R173Q;G201R).
T2 sequence: T1 sequence with R173Q, G201R
As to the kind of experiment: BLI; 1000 nM dimer; BLI: 100 mM Tris-HCl pH 7.4, 150 mM NaCl, 1 mM EDTA, 0.005% Tween 20; temperature not stated; biotinylated DNA on streptavidin sensor, protein typically 0-1000. The following applies: protein: recombinant; tags: C-terminal His6; chain copies: 2; label: 5' biotin on strand 1; blunt. On the technique in general: BLI is a label-free optical method that tracks binding on a fibre tip over time.
As for B2, the binding result is given as “no binding”.

For B3, the binding result is on record as “no binding”.

Consider B4, for which the binding result was “no binding”.

Regarding B5, the binding result was “no binding”.

For the molecule B6, the binding result was “no binding”.

As for B7, the binding result was “no binding”.

B8: the binding result is recorded as “no binding”.

B9: the binding result is “no binding”.

For B10, the binding result is recorded as “no binding”.

For B1, the binding result was “no binding”.

Take B11: the binding result was “no binding”.

On to B12, for which the binding result was “no binding”.

As to B13, the binding result is reported as “no binding”.

Regarding B14, the binding result is “no binding”.

Take B15: the binding result is “no binding”.

As to B16, the binding result is given as “no binding”.

The next data set has as its target T3, ParB PtoN1 (QTAG) (Caulobacter crescentus, UniProt B8GW30 1-304, R173Q).
T3 sequence: T1 sequence with R173Q
The description is as above. The following applies: protein: recombinant; tags: C-terminal His6; chain copies: 2; label: 5' biotin on strand 1; blunt.
B2: the binding result is recorded as “no binding”.

B3: the binding result is on record as “no binding”.

B4: the binding result is on record as “no binding”.

On to B5, for which the binding result is “no binding”.

With B6, the binding result is given as “no binding”.

Regarding B7, the binding result is reported as “no binding”.

In the case of B8, the binding result is “no binding”.

For B9, the binding result is recorded as “no binding”.

In the case of B10, the binding result is recorded as “no binding”.

With B1, the binding result is recorded as “no binding”.

Consider B11, for which the binding result was “no binding”.

Take B12: the binding result is on record as “no binding”.

Regarding B13, the binding result is given as “no binding”.

Regarding B14, the binding result was “no binding”.

Take B15: the binding result is listed as “no binding”.

Take B16: the binding result is “no binding”.

For a further data set, the target named is T4, ParB DBD (Caulobacter crescentus, UniProt B8GW30 126-243).
T4 sequence: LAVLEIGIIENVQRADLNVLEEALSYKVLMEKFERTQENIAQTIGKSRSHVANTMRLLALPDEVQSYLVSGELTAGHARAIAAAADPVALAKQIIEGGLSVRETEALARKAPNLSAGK
As to the kind of experiment: X-ray crystallography 2.4 A; BLI: 100 mM Tris-HCl pH 7.4, 150 mM NaCl, 1 mM EDTA, 0.005% Tween 20; temperature not stated; biotinylated DNA on streptavidin sensor, protein typically 0-1000. The following applies: protein: recombinant; tags: C-terminal His6; chain copies: 2; blunt; palindrome, 2 strand copies.
As to B17, the binding result is “binds”.
